From publication doi:10.1101/2024.07.10.602906
pKd: −log10 of the molar value.

What was measured:
[1] = target: GV CW1 murine norovirus VP1 P-domain (wild type) (murine norovirus (GV, MNV-1 CW1)) (UniProt Q80J95); experiment: methyl TROSY NMR
[2] = target: GV CW1 murine norovirus VP1 P-domain (wild type) (murine norovirus (GV, MNV-1 CW1)) (UniProt Q80J95); experiment: NMR titration

Substance: GV CW1 murine norovirus VP1 P-domain (wild type) (from UniProt Q80J95 228-530) (domain or fragment)
- percent dimers at pH* 5.3 [1]: > 70%
- percent monomers at pH 7.4 [1]: 70%
- pKd [2]: 4.35
- koff [2]: 4.7 s⁻¹
